Measured values published in PMC10120002 (Proceedings of the National Academy of Sciences of the …, 2023).

Experiments:
[1] = target: T1, recombinant Cdk5/p25 complex (UniProt Q00535 1-292; Q15078 99-307); assay: BLI
[2] = target: Cdk5 protein alone (recombinant) (UniProt Q00535 1-292); assay: MST
[3] = target: T1, recombinant Cdk5/p25 complex; assay: MST

## ARAFGIPVRCYS [Cdk5i peptide]
[1]
  Kd: 220 nM
[2]
  Kd: 15700 nM
[3]
  Kd: 170 nM
